Experimental findings from the supplement of paper PMC7877785 are described below.

A short description of this series: self-splicing fitness, log relative to wild type (ln ratio); higher = more splicing; Tetrahymena group I intron in knt gene, E. coli kanamycin selection, DiMSum; sequences stand for … in CUCUCU…GGAGGGAAAAGUUAUCAGGCAUGCACCUGGUAGCUAGUCUUUAAACCAAUAGAUUGCAUCGGUUUAAAAGGCAAGACCGUCAAAUUGCGGGAAAGGGGUCAACAGCCGUUCAGUACCAAGUCUCAGGGGAAACUUUGAGAUGGCCUUGCAAAGGGUAUGGUAAUAAGCUGACGGACAUGGUCCUAACCACGCAGCCAAGUCCUAAGUCAACAGAUCUUCUGUUGAUAUGGAUGCAGUUCACAGACUAAAUGUCGGUCGGGGAAGAUGUAUUCUUCUCAUAAGAUAUAGUCGGACCUCUCCUUAAUGGGAGCUAGCGGAUGAAGUGAUGCAACACUGGAGCCGCUGGGAACUAAUUUGUAUGCGAAAGUAUAUUGAUUAGUUUUGGAGUACUCGUGGUCG
In a few lines: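 DiMSum derived fitness as the error-weighted combination of fold changes across replicates, kanamycin versus no kanamycin, normalised to wild type. E. coli BL21(DE3) held the library, which randomised all eight P1ex-region intron nucleotides within the knt kanamycin-resistance gene on pET-22b(+). Six replicate transformations grew overnight at 37°C or 30°C on LB agar with or without 25 μg/mL kanamycin, also containing 100 μg/mL carbenicillin, 50 μM IPTG and 0.2% rhamnose, and pooled colonies were amplicon-sequenced on an Illumina HiSeq 2500.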

± gives the uncertainty stated by the source.

On to CAUAAGCAAUAUUACGUCGU, for which the “self-splicing fitness (ln)” value was -4.23 ± 0.34 (30 °C) and -1.64 ± 0.12 (37 °C).
For UCGCAGCAAUAUUACGUUCG the same measures were -0.961 ± 0.088 and -0.562 ± 0.094.
Take CGAAAGCAAUAUUACGUCCG: the “self-splicing fitness (ln)” value was -1.22 ± 0.088 (30 °C) and -0.637 ± 0.12 (37 °C).
For UGCAAGCAAUAUUACGUGAU, the “self-splicing fitness (ln)” value runs as follows: (30 °C) -3.33 ± 0.082; (37 °C) -2.13 ± 0.093.
Turning to AUGAAGCAAUAUUACGGCAG, the “self-splicing fitness (ln)” value was 0.378 ± 0.086 (30 °C) and -0.115 ± 0.1 (37 °C).
For the sequence UACCAGCAAUAUUACGAGAG, the “self-splicing fitness (ln)” value is, setting by setting: (30 °C) -2.64 ± 0.12; (37 °C) -1.12 ± 0.081.
Consider UCUAAGCAAUAUUACGGAGG, for which the “self-splicing fitness (ln)” value is -2.49 ± 0.26 (30 °C) and -3.05 ± 0.43 (37 °C).
As to UCAUAGCAAUAUUACGAUAC, the “self-splicing fitness (ln)” value (30 °C) was -3.23 ± 0.38.
Regarding GACCAGCAAUAUUACGUCAC, the “self-splicing fitness (ln)” value is, setting by setting: (30 °C) -4.24 ± 0.27; (37 °C) -2.54 ± 0.2.
For ACAGAGCAAUAUUACGUGAG the same measures were -2.08 ± 0.11 and -1.55 ± 0.1.
For UUCUAGCAAUAUUACGCUGU the same measures were -2.17 ± 0.17 and -1.63 ± 0.2.
Take UGGGAGCAAUAUUACGUUUU: the “self-splicing fitness (ln)” value (30 °C) was -4.43 ± 0.4 and the “self-splicing fitness (ln)” value (37 °C) is -2.51 ± 0.33.
For UGGAAGCAAUAUUACGUGGU the same measures were -3.53 ± 0.49 and -2.25 ± 0.3.
For the sequence UUCUAGCAAUAUUACGGUGG, the “self-splicing fitness (ln)” value (30 °C) was -4.34 ± 0.39 and the “self-splicing fitness (ln)” value (37 °C) is -2.5 ± 0.26.
For GAUAAGCAAUAUUACGUGGG, the “self-splicing fitness (ln)” value was -3.77 ± 0.23 (30 °C) and -2.27 ± 0.25 (37 °C).
As to CUGGAGCAAUAUUACGGCGU, the “self-splicing fitness (ln)” value (30 °C) was -2.77 ± 0.18.
As to GAAUAGCAAUAUUACGAGGU, the “self-splicing fitness (ln)” value (30 °C) is -4 ± 0.36 and the “self-splicing fitness (ln)” value (37 °C) was -2.61 ± 0.24.
On the same counts, the results for UCGGAGCAAUAUUACGGAGG are -3.68 ± 0.46 and -1.98 ± 0.34.
For CCUGAGCAAUAUUACGCUCU the same measures were -3.59 ± 0.43 and -2.26 ± 0.25.
On the same counts, the results for ACCUAGCAAUAUUACGUGAU are -1.5 ± 0.057 and -0.344 ± 0.074.
Regarding GCUAAGCAAUAUUACGUGUG, the “self-splicing fitness (ln)” value reads like this: (30 °C) -1.22 ± 0.079; (37 °C) -0.636 ± 0.098.
Turning to CGCAAGCAAUAUUACGCUAU, the “self-splicing fitness (ln)” value runs as follows: (30 °C) -3.23 ± 0.17; (37 °C) -3.15 ± 0.22.
For GUGGAGCAAUAUUACGUAAA, the “self-splicing fitness (ln)” value is -1.5 ± 0.21 (30 °C) and -2.18 ± 0.47 (37 °C).
For CGACAGCAAUAUUACGCUAU the same measures were -3.71 ± 0.23 and -2.04 ± 0.14.
For AUUAAGCAAUAUUACGCCGG the same measures were -0.824 ± 0.19 and -0.226 ± 0.25.
On the same counts, the results for CCUAAGCAAUAUUACGCCCG are -2.22 ± 0.22 and -0.795 ± 0.26.
For AAUAAGCAAUAUUACGAUCA, the “self-splicing fitness (ln)” value (30 °C) is -0.507 ± 0.12 and the “self-splicing fitness (ln)” value (37 °C) was 0.576 ± 0.13.
On the same counts, the results for GCGAAGCAAUAUUACGGUCU are -1.71 ± 0.085 and -0.493 ± 0.089.
Take GCAUAGCAAUAUUACGCUGA: the “self-splicing fitness (ln)” value is -2.69 ± 0.24 (30 °C) and -1.06 ± 0.14 (37 °C).
Consider CCAAAGCAAUAUUACGGCUA, for which the “self-splicing fitness (ln)” value is -4.05 ± 0.43 (30 °C) and -2.28 ± 0.28 (37 °C).
For AUUAAGCAAUAUUACGCCUA, the “self-splicing fitness (ln)” value reads like this: (30 °C) -0.154 ± 0.086; (37 °C) 0.195 ± 0.11.
For the sequence GAUAAGCAAUAUUACGGCCG, the “self-splicing fitness (ln)” value is -1.35 ± 0.1 (30 °C) and -0.332 ± 0.15 (37 °C).
On the same counts, the results for GCCCAGCAAUAUUACGAUGA are -2.14 ± 0.18 and -0.287 ± 0.14.
Take ACUAAGCAAUAUUACGGCGG: the “self-splicing fitness (ln)” value runs as follows: (30 °C) -0.98 ± 0.07; (37 °C) -0.452 ± 0.1.
Consider GGCUAGCAAUAUUACGCGGG, for which the “self-splicing fitness (ln)” value is, setting by setting: (30 °C) -3.62 ± 0.25; (37 °C) -3.06 ± 0.27.
For UGUGAGCAAUAUUACGUUUU the same measures were -3.15 ± 0.27 and -2.98 ± 0.37.
For UCCCAGCAAUAUUACGCACG the same measures were -3.4 ± 0.17 and -2.6 ± 0.23.
Take CGAUAGCAAUAUUACGCGUA: the “self-splicing fitness (ln)” value (30 °C) is -2.42 ± 0.41 and the “self-splicing fitness (ln)” value (37 °C) was -2.14 ± 0.24.
On the same counts, the results for AUAGAGCAAUAUUACGCUGC are -2.86 ± 0.29 and -1.05 ± 0.2.
For CUUGAGCAAUAUUACGUAGG the same measures were -1.79 ± 0.15 and -0.65 ± 0.15.
Take GAAUAGCAAUAUUACGGUCG: the “self-splicing fitness (ln)” value is -0.153 ± 0.098 (30 °C) and -0.479 ± 0.12 (37 °C).
As to ACCUAGCAAUAUUACGGCGU, the “self-splicing fitness (ln)” value was -0.278 ± 0.056 (30 °C) and 0.12 ± 0.07 (37 °C).
For AUACAGCAAUAUUACGGGGU, the “self-splicing fitness (ln)” value (30 °C) was -3.29 ± 0.13 and the “self-splicing fitness (ln)” value (37 °C) was -1.69 ± 0.093.
For CAAUAGCAAUAUUACGACCA, under “37 °C”, the “self-splicing fitness (ln)” value is -1.81 ± 0.41.
On to UUAGAGCAAUAUUACGCCCA, for which the “self-splicing fitness (ln)” value reads like this: (30 °C) -1.04 ± 0.19; (37 °C) -0.676 ± 0.3.
With GACCAGCAAUAUUACGUUCU, the “self-splicing fitness (ln)” value was -0.569 ± 0.078 (30 °C) and -0.975 ± 0.12 (37 °C).
As for AGUGAGCAAUAUUACGAUCU, the “self-splicing fitness (ln)” value was -1.7 ± 0.14 (30 °C) and -1.13 ± 0.15 (37 °C).
Regarding CCAAAGCAAUAUUACGCCCA, the “self-splicing fitness (ln)” value reads like this: (30 °C) -2.49 ± 0.33; (37 °C) -2.72 ± 0.34.
On to GAGGAGCAAUAUUACGGCCU, for which the “self-splicing fitness (ln)” value (30 °C) is -1.99 ± 0.38.
In the case of CUCAAGCAAUAUUACGAUGA, the “self-splicing fitness (ln)” value was -1.31 ± 0.11 (30 °C) and -2.07 ± 0.16 (37 °C).
For GCCCAGCAAUAUUACGCUGG the same measures were -2.86 ± 0.15 and -3.32 ± 0.28.
On the same counts, the results for AGAUAGCAAUAUUACGGCAA are 0.243 ± 0.16 and -0.127 ± 0.19.
In the case of UGGAAGCAAUAUUACGUUCU, the “self-splicing fitness (ln)” value is, setting by setting: (30 °C) -3.42 ± 0.25; (37 °C) -1.31 ± 0.17.
On the same counts, the results for GCUAAGCAAUAUUACGAGCC are -3.9 ± 0.2 and -2.33 ± 0.33.
As to GCGAAGCAAUAUUACGAUAA, the “self-splicing fitness (ln)” value is -2.27 ± 0.15 (30 °C) and -1.46 ± 0.2 (37 °C).
For GUGCAGCAAUAUUACGAUGC the same measures were -0.245 ± 0.11 and 0.208 ± 0.17.
On the same counts, the results for ACCCAGCAAUAUUACGUAGA are -2.03 ± 0.1 and -1.39 ± 0.11.
In the case of CACAAGCAAUAUUACGUUCC, the “self-splicing fitness (ln)” value was -3.75 ± 0.19 (30 °C) and -2.42 ± 0.23 (37 °C).
As for UAUCAGCAAUAUUACGGGUU, the “self-splicing fitness (ln)” value by setting is: (30 °C) -1.83 ± 0.1; (37 °C) -0.944 ± 0.11.
On the same counts, the results for AGGCAGCAAUAUUACGUUUC are -2.17 ± 0.095 and -1.75 ± 0.15.
For GCAGAGCAAUAUUACGCAUA the same measures were -3.11 ± 0.22 and -2.89 ± 0.24.
On the same counts, the results for AUAGAGCAAUAUUACGUUGU are -1.96 ± 0.066 and -1.52 ± 0.07.
In the case of GGUCAGCAAUAUUACGUCGU, the “self-splicing fitness (ln)” value is, setting by setting: (30 °C) 0.302 ± 0.08; (37 °C) 0.488 ± 0.082.
On the same counts, the results for CGCUAGCAAUAUUACGUCUC are -2.62 ± 0.48 and -1.46 ± 0.23.
For CCACAGCAAUAUUACGCCUG the same measures were -1.51 ± 0.092 and -0.296 ± 0.1.
Turning to CGGGAGCAAUAUUACGCCUG, the “self-splicing fitness (ln)” value (30 °C) was -2.39 ± 0.28.
For the sequence CCAAAGCAAUAUUACGAACU, the “self-splicing fitness (ln)” value was -2.89 ± 0.29 (30 °C) and -2.13 ± 0.38 (37 °C).
As to AACCAGCAAUAUUACGGUAG, the “self-splicing fitness (ln)” value is -1.99 ± 0.058 (30 °C) and -1.02 ± 0.066 (37 °C).
Take CUUUAGCAAUAUUACGCGCG: the “self-splicing fitness (ln)” value (30 °C) is -1.05 ± 0.14 and the “self-splicing fitness (ln)” value (37 °C) was -0.656 ± 0.17.
For AAUCAGCAAUAUUACGCACG the same measures were -1.02 ± 0.17 and -1.1 ± 0.16.
Take AGCGAGCAAUAUUACGCUGU: the “self-splicing fitness (ln)” value is, setting by setting: (30 °C) -3.15 ± 0.32; (37 °C) -2.08 ± 0.22.
Turning to GCAAAGCAAUAUUACGAGGG, the “self-splicing fitness (ln)” value is -3.02 ± 0.11 (30 °C) and -1.55 ± 0.1 (37 °C).
CUUGAGCAAUAUUACGGGGU: the “self-splicing fitness (ln)” value was -3.14 ± 0.17 (30 °C) and -3.37 ± 0.27 (37 °C).
In the case of GGGAAGCAAUAUUACGUAAC, the “self-splicing fitness (ln)” value was -2.91 ± 0.26 (30 °C) and -1.06 ± 0.18 (37 °C).
For ACGUAGCAAUAUUACGCCUG the same measures were -1.29 ± 0.077 and 0.00322 ± 0.11.
For AUCAAGCAAUAUUACGGCAU the same measures were -0.523 ± 0.067 and 0.787 ± 0.088.
